Our source for the Km values is ChEMBL document CHEMBL1268867, “ATPases as drug targets: insights from heat shock proteins 70 and 90” (J Med Chem, 2010).

Data set [1] concerns Nc1ncnc2c1ncn2[C@@H]1O[C@H](COP(=O)(O)OP(=O)(O)OP(=O)(O)O)[C@@H](O)[C@H]1O. In words: Binding affinity to CDK2/cyclin E. Format: protein-complex assay.
Data set [2] concerns Nc1ncnc2c1ncn2[C@@H]1O[C@H](COP(=O)(O)OP(=O)(O)O)[C@@H](O)[C@H]1O. The settings on record: Saccharomyces cerevisiae.
Description: Binding affinity to yeast Hsp90
Data set [3] in a line: Binding affinity to FGFR.

As usually defined, the Km is the concentration of substrate that gives half-maximal velocity. Consider “Cyclin-dependent kinase 2/cyclin E (Homo sapiens) (from UniProt P24864+P24941+O96020)”, for which the Km in data set [1] is 3.6 µM.

Turning to “ATP-dependent molecular chaperone HSP82 (Saccharomyces cerevisiae S288c), P02829”, the Km in data set [2] came out at 150 µM.

`Nc1ncnc2c1ncn2[C@@H]1O[C@H](COP(=O)(O)OP(=O)(O)OP(=O)(O)O)[C@@H](O)[C@H]1O`: the Km in data set [3] stood at 70 µM.
